These results are taken from US20120164110A1, “DIFFERENTIALLY METHYLATED REGIONS OF REPROGRAMMED INDUCED PLURIPOTENT STEM CELLS, METHOD AND COMPOSITIONS THEREOF” (priority 2009, published 2012).

For test [1], the system named is intermediate or partial states of reprogramming. As to conditions: cited from earlier work.
Another test deals with NSC-NP-iPSC. In words: methylcellulose hematopoietic colony forming assay of EB-differentiated cells. It is filed as cell-based, mouse. As to conditions: Wnt3a 40 ng/ml in EB culture media between day 2 and 4, versus non-treated EBs. Here is the method:
(§1) Differentiation of iPSC to hematopoietic and osteogenic lineages was performed as follows. Hematopoietic colony forming activity of d6 EBs differentiated from pluripotent stem cells was measured in methylcellulose medium with IL3, IL6, Epo, and SCF (M3434, StemCell Tech.) as described in Kyba et al. (Cell (109)29-37 (2002)). Hematopoietic colony type was determined on day 10. Colony identity was confirmed by leukostain analysis of cytospin preparation of the methylcellulose colonies. Osteogenic differentiation was performed by culturing pluripotent stem cells in 15 μl hanging drops (800 cells/drop) in ES differentiation media^16. Embryoid bodies (EB) from hanging drops were collected at 2 days, transferred to a 10 cm dish of non-tissue culture grade plastic with 10^−6 M of retinoic acid, and cultured for 3 days on the shaker (50 rpm) in an incubator. EBs were equally distributed among 3 wells of a 6-well tissue culture dish, and cultured in aMEM media supplemented with 10% FBS, 1× penicillin/streptomycin/glutamine (Invitrogen), 2 nM triiodothyronine, 1× insulin/transferrin/[…] (Gibco, #51300-044). The media were changed every other day. On day 11, one well of each sample was used to measure calcium concentration, osteogenic gene expression (RNA isolation), and for Alizarin Red staining. For Alizarin Red staining, cells were washed with PBS and fixed with 4% paraformaldehyde for 5 minutes at 20 C. Fixed cells were incubated for 15 minutes in Alizarin Red staining solution (Alizarin Red (Sigma, A5533) 2% in H2O, pH 4-4.3 adjusted with NH4OH, filtered with 0.45 uM membrane), and washed with Tris-HC1, pH4.0. Elemental calcium concentrations were measured by inductively coupled plasma—atomic emission spectroscopy (ICP-AES, HORIBA Jobin Yvon Activa-M) as described in Nomlru et al. (Anal. Chem. (66)3000-3004 (1994)) at the Center for Materials Science and Engineering at MIT, and three measurements were conducted to obtain mean and standard deviation values. […]

The test system of another test is NP-iPSC. The test is described as above. Type of test: cell-based, mouse. As to conditions: Wnt3a 40 ng/ml in EB culture media between day 2 and 4, versus non-treated EBs. Here is the method:
as §1

A further test deals with B-NP-iPSC. The test is described as above. Type of test: cell-based, mouse. As to conditions: Wnt3a 40 ng/ml in EB culture media between day 2 and 4, versus non-treated EBs. The procedure: as §1

Entries after “also recorded” stand apart in the source; their conditions may differ.

On to `Nc1ncn([C@@H]2O[C@H](CO)[C@@H](O)[C@H]2O)c(=O)n1` [5-AZA, 5-azacytidine], for which, in test [1], the “effect on intermediate states of reprogramming” value was “can convert intermediate states to full pluripotency”.

B1: Wnt3a: exogenous Wnt3a cytokine (R&D System, 1324-WN-002/CF) (protein, UniProt P56704 19-352, looked up)
Protein Wnt-3a: SYPIWWSLAVGPQYSSLGSQPILCASIPGLVPKQLRFCRNYVEIMPSVAEGIKIGIQECQHQFRGRRWNCTTVHDSLAIFGPVLDKATRESAFVHAIASAGVAFAVTRSCAEGTAAICGCSSRHQGSPGKGWKWGGCSEDIEFGGMVSREFADARENRPDARSAMNRHNNEAGRQAIASHMHLKCKCHGLSGSCEVKTCWWSQPDFRAIGDFLKDKYDSASEMVVEKHRESRGWVETLRPRYTYFKVPTERDLVYYEASPNFCEPNPETGSFGTRDRTCNVSSHGIDGCDLLCCGRGHNARAERRREKCRCVFHWCCYVSCQECTRVYDVHTCK
In the case of B1, the blood-forming potential entry is given as “restored” in the test with NSC-NP-iPSC and “restored; also recorded: enhanced” with NP-iPSC. The hematopoietic potential entry with B-NP-iPSC is on record as “little effect”.
